Each block holds one molecule with its values, some of them ahead of it.
B3: Recombinant LRP cluster II (receptor, UniProt Q07954 805-1184, looked up)
chain: NKCRVNNGGCSSLCLATPGSRQCACAEDQVLDADGVTCLANPSYVPPPQCQPGEFACANSRCIQERWKCDGDNDCLDNSDEAPALCHQHTCPSDRFKCENNRCIPNRWLCDGDNDCGNSEDESNATCSARTCPPNQFSCASGRCIPISWTCDLDDDCGDRSDESASCAYPTCFPLTQFTCNNGRCININWRCDNDNDCGDNSDEAGCSHSCSSTQFKCNSGRCIPEHWTCDGDNDCGDYSDETHANCTNQATRPPGGCHTDEFQCRLDGLCIPLRWRCDGDTDCMDSSDEKSCEGVTHVCDPSVKFGCKDSARCISKAWVCDGDNDCEDNSDEENCESLACRPPSHPCANNTSVCLPPDKLCDGNDDCGDGSDEGELCDQ
notes: domain: cluster II

What was measured:
[1] = molecular target: Purified placenta-derived low-density lipoprotein receptor-related protein (LRP) (UniProt Q07954); test: SPR, immobilised LRP, two-site model, site class 1
[2] = molecular target: Purified placenta-derived low-density lipoprotein receptor-related protein (LRP) (UniProt Q07954); test: SPR, immobilised LRP, two-site model, site class 2
[3] = molecular target: Purified placenta-derived low-density lipoprotein receptor-related protein (LRP) (UniProt Q07954); test: SPR, immobilised LRP, steady-state affinity analysis
[4] = molecular target: B3; test: solid-phase competition: peptide against FVIII light chain (25 nM) binding to immobilised LRP cluster II
Procedure: (§1) Solid-phase Binding Assays—Recombinant LRP clusters II or IV (1 pmol/well) were adsorbed onto microtiter wells in 50 mM NaHCO₃ (pH 9.8) in a volume of 50 μl for 16 h at 4° C. Wells were blocked with 2% (w/v) HSA, 150 mM NaCl, 5 mM CaCl₂, and 50 mM Tris (pH 7.4) in a volume of 200 μl for 1 h at 37° C. […] Bound ligand was detected by incubating with peroxidase-conjugated monoclonal antibody CLB-CAg 12 in the same buffer for 15 min at 37° C. […] Residual FVIII binding was detected as described above.
Half-maximum inhibition constants (IC₅₀) represent the mean values ±S.D. of three experiments.)

Factor Va light chain = molecular target: T1, Factor Va light chain (human, UniProt P12259 1574-2224); test: SPR (BIAcore), FVa light chain immobilised at 76 fmol/mm2, LRP cluster II 100 nM as analyte
T1 construct: domain: FVa light chain; also called FVa light chain
T1 sequence (looked up): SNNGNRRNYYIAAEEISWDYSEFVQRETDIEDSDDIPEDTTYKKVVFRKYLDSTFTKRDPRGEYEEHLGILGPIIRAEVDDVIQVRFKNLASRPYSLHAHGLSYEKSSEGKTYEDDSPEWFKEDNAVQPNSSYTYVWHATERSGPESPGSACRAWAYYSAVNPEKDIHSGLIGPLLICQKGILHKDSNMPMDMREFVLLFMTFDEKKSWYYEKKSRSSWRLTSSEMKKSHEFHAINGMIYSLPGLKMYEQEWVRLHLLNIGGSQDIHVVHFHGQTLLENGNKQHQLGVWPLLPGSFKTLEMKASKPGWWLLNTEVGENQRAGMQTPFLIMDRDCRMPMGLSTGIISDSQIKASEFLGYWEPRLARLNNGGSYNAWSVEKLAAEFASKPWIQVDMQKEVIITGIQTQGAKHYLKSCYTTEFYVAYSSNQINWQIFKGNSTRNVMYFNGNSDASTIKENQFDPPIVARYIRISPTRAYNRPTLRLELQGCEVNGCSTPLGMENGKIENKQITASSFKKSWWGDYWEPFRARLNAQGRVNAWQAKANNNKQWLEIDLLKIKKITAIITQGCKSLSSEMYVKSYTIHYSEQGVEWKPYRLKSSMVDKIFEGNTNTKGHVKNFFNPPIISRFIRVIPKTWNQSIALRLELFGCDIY
Procedure: Response is indicated as Resonance Units (RU) and is corrected for nonspecific binding, which was less than 5% relative to coated channels.
Surface Plasmon Resonance—The kinetics of protein interactions was determined by surface plasmon resonance (SPR) analysis, employing a BIAcore™2000 biosensor system (Biacore AS, Uppsala, Sweden). […] One control flow-channel was routinely activated and blocked in the absence of protein. […] Dissociation was allowed for 2 min in the same buffer flow. Sensor-chips were regenerated using several pulses of either 100 mM H₃PO₄ or 20 mM EDTA, 1 M NaCl, and 50 mM Hepes (pH 7.4) at a flow rate of 20 μl/min. The association (kₒₙ) and dissociation (koff) rate constants were determined by using the BIAevaluation software 3.1 (Biacore AB, Uppsala, Sweden). Data were corrected for bulk refractive index changes and fitted by nonlinear regression analysis according to a two-site binding model. Equilibrium dissociation constants (kd) were calculated from the ratio koff/kₒₙ. The kd value for low-affinity interactions was estimated using steady-state affinity analysis by using BIAevaluation software.

[5] = molecular target: B3; test: solid-phase binding assay: serial dilutions of FVIII light chain on immobilised LRP cluster II (1 pmol/well); detection with peroxidase-conjugated CLB-CAg 12
Procedure: FIG. 2. […] Data represent the mean ±S.D. of three experiments
as §1

Purified placenta-derived low-density lipoprotein receptor-related protein (LRP), sequence (Q07954 20-4544, form in doubt): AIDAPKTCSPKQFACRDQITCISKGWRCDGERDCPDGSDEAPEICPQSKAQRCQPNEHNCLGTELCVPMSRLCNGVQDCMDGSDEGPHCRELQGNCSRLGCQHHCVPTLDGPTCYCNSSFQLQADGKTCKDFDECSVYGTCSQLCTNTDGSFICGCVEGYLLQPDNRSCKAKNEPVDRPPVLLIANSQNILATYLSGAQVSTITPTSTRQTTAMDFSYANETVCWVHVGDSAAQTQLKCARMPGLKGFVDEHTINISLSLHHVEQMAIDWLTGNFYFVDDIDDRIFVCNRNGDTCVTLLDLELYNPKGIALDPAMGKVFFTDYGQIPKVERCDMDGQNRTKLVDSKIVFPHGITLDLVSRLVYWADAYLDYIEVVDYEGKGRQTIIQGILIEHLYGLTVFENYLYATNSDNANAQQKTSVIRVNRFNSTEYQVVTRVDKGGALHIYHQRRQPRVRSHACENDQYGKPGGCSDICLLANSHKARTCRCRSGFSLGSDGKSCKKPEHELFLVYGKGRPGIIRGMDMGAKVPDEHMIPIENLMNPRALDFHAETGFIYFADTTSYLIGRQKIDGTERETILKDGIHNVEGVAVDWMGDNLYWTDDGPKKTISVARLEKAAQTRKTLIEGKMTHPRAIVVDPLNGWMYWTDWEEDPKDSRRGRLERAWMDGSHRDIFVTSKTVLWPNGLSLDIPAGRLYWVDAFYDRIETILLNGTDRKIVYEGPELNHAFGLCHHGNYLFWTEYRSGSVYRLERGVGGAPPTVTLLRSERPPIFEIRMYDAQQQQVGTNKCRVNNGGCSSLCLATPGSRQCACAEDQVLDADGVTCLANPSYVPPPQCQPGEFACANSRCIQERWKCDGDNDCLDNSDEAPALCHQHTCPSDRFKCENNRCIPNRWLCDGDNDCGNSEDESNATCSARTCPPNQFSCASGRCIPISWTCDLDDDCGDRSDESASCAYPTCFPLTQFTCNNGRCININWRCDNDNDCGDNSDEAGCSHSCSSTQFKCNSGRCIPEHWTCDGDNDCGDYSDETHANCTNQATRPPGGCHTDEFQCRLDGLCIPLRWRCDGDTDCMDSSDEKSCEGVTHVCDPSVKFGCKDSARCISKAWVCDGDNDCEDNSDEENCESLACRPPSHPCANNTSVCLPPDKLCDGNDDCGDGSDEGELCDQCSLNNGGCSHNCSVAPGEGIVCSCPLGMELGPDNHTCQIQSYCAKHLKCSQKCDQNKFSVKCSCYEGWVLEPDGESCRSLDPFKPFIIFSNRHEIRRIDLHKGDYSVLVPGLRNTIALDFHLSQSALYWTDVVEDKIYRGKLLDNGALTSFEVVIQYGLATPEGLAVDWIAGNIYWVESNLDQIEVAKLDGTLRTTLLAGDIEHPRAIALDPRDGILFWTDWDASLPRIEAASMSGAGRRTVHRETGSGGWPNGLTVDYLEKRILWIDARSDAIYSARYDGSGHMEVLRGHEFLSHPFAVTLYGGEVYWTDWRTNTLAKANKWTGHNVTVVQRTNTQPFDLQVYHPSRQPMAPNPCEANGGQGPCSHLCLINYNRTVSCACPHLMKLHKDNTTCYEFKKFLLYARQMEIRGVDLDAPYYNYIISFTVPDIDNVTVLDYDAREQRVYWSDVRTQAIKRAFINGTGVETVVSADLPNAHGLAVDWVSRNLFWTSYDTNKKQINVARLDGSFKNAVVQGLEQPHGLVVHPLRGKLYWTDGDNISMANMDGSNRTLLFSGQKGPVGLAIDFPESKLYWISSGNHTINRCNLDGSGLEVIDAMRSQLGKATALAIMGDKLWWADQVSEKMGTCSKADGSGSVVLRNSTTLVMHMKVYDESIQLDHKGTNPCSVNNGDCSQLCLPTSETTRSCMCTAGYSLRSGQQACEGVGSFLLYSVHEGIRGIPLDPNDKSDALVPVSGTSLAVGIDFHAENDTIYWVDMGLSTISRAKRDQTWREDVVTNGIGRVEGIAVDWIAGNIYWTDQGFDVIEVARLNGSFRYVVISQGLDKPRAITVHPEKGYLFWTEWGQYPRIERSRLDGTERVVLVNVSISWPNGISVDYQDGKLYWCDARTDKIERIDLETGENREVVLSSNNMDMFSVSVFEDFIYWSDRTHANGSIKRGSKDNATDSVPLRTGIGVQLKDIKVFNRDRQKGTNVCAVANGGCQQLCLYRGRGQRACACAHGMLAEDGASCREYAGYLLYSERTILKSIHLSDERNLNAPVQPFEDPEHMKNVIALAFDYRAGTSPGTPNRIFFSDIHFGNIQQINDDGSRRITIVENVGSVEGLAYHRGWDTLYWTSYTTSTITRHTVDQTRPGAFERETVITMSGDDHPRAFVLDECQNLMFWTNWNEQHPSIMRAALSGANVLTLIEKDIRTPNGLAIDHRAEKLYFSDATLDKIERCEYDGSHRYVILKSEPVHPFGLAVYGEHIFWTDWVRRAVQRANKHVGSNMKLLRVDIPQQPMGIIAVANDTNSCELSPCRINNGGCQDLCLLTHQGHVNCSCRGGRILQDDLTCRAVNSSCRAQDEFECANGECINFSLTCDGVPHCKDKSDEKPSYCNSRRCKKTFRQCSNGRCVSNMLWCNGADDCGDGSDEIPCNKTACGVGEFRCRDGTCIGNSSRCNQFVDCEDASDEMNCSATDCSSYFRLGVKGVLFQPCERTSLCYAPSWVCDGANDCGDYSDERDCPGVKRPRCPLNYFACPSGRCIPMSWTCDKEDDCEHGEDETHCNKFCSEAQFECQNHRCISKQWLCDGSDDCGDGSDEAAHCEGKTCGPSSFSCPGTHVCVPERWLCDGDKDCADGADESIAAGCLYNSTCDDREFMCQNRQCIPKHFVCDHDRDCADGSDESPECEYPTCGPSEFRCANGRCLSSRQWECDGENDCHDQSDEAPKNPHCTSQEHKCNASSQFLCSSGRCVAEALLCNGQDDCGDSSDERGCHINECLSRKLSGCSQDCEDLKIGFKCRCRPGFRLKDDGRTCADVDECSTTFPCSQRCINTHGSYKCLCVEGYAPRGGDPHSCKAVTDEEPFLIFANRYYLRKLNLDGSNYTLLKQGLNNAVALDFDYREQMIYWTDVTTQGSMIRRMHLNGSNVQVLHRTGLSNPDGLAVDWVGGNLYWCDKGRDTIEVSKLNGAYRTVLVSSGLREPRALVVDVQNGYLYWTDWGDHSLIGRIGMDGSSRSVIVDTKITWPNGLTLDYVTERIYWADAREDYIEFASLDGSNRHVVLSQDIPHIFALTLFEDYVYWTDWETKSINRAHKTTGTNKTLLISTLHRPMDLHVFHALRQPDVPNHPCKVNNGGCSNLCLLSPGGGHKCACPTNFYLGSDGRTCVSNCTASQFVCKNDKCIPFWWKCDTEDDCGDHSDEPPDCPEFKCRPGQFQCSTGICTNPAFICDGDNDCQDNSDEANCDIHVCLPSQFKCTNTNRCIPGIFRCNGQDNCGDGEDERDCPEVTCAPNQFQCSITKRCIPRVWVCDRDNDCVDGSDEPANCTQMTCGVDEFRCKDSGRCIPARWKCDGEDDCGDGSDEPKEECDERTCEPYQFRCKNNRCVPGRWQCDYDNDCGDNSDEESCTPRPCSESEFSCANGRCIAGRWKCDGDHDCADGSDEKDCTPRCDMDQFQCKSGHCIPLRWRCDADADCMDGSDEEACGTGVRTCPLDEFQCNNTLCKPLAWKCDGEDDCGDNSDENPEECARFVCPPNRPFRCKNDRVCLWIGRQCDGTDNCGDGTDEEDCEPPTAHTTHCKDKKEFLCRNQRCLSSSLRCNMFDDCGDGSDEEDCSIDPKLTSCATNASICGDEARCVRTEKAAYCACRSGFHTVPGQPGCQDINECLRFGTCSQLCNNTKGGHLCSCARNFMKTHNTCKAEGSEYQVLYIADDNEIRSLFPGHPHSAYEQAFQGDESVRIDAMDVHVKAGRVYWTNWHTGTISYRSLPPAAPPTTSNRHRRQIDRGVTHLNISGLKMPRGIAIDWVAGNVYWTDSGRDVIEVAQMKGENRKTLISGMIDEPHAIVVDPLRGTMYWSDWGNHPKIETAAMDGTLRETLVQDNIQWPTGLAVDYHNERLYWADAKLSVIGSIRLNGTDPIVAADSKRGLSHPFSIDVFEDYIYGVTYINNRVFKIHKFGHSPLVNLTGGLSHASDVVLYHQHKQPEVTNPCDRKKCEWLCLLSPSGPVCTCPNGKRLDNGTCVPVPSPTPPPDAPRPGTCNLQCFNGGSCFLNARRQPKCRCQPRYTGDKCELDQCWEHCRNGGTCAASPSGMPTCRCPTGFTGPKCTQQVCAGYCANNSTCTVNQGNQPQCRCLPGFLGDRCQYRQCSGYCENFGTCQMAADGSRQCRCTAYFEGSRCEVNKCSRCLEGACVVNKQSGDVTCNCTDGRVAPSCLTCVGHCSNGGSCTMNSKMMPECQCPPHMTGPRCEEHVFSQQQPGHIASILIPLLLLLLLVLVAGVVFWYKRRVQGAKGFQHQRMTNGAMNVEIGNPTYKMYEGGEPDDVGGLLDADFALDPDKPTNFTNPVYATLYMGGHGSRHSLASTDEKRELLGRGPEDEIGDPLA

Molecule: Factor Xa-cleaved FVIII light chain (from UniProt P00451 1741-2351)
- Kd [1]: 22 nM
- koff [1]: 0.003 s⁻¹
- kon [1]: 130000 M⁻¹ s⁻¹
- Kd [2]: 60 nM
- koff [2]: 0.056 s⁻¹
- kon [2]: 900000 M⁻¹ s⁻¹

Molecule: Recombinant FVIII C2 domain (from UniProt P00451 2192-2351)
- Kd [3]: 3400 nM

Molecule: Recombinant FVIII a3-A3-C1 fragment (from UniProt P00451 1668-2191)
- Kd [1]: 26 nM
- koff [1]: 0.0041 s⁻¹
- kon [1]: 160000 M⁻¹ s⁻¹
- Kd [2]: 74 nM
- koff [2]: 0.08 s⁻¹
- kon [2]: 1.1e+06 M⁻¹ s⁻¹

Molecule: B3
- binding result (Factor Va light chain): no binding (tested: 100 nM)

B4: Plasma-derived FVIII light chain (other, UniProt P00451 1668-2351, looked up)
chain: EITRTTLQSDQEEIDYDDTISVEMKKEDFDIYDEDENQSPRSFQKKTRHYFIAAVERLWDYGMSSSPHVLRNRAQSGSVPQFKKVVFQEFTDGSFTQPLYRGELNEHLGLLGPYIRAEVEDNIMVTFRNQASRPYSFYSSLISYEEDQRQGAEPRKNFVKPNETKTYFWKVQHHMAPTKDEFDCKAWAYFSDVDLEKDVHSGLIGPLLVCHTNTLNPAHGRQVTVQEFALFFTIFDETKSWYFTENMERNCRAPCNIQMEDPTFKENYRFHAINGYIMDTLPGLVMAQDQRIRWYLLSMGSNENIHSIHFSGHVFTVRKKEEYKMALYNLYPGVFETVEMLPSKAGIWRVECLIGEHLHAGMSTLFLVYSNKCQTPLGMASGHIRDFQITASGQYGQWAPKLARLHYSGSINAWSTKEPFSWIKVDLLAPMIIHGIKTQGARQKFSSLYISQFIIMYSLDGKKWQTYRGNSTGTLMVFFGNVDSSGIKHNIFNPPIIARYIRLHPTHYSIRSTLRMELMGCDLNSCSMPLGMESKAISDAQITASSYFTNMFATWSPSKARLHLQGRSNAWRPQVNNPKEWLQVDFQKTMKVTGVTTQGVKSLLTSMYVKEFLISSSQDGHQWTLFFQNGKVKVFQGNQDSFTPVVNSLDPPLLTRYLRIHPQSWVHQIALRMEVLGCEAQDLY
notes: domain: light chain (a3-A3-C1-C2); Prepared from plasma as in the cited literature; Human by context (the peptides are said to cover human FVIII regions); Residue numbers count on mature FVIII, without the signal peptide; also called LCh; 80-kDa light chain (a3-A3-C1-C2)
- Kd [1]: 18 nM
- Kd [2]: 59 nM
- EC50 (read off the curve) [5]: ~20 nM

The remaining lines, values ahead:

- IC50 [4]: 16800 nM
B1: Synthetic peptide FVIII Tyr^1815-Ala^1834 (peptide)
peptide: YFWKVQHHMAPTKDEFDCKA

- IC50 [4]: 900000 nM
B2: Synthetic peptide FVIII Asp^2108-Gly^2117 (peptide)
peptide: DGKKWQTYRG
notes: also called 2108-2117

- IC50 [4]: 1900 nM
B5: Synthetic peptide FVIII Lys^1804-Lys^1818 (peptide)
peptide: KNFVKPNETKTYFWK

— US20080219983A1 (TRIMESTER CUSHION, published 2008)
